The record followed here is US20260042847A1, “CYSTEINE ENGINEERED ANTIBODY CONSTRUCTS, CONJUGATES AND METHODS OF USE” (ZYMEWORKS INC., priority 2021, published 2026).

This assay concerns mid c-Met expressing colorectal cancer xenograft model HT-29. The assay can be described thus: In vivo anti-tumor activity, HT-29 xenograft. Also noted: species or system balb/c nude mice. As to conditions: single IV dose, toxin-matched 6 (DAR1), 3 (DAR2), 2 (DAR3), 1.5 (DAR4) mg/kg, FIG. 7A. As for the experimental part:
For the HT-29 model, tumor cell suspensions (3×10^6 cells in 0.1 ml PBS) were implanted subcutaneously into balb/c nude mice. When mean tumor volume reached ˜160 mm3, the animals were randomly assigned to groups (n=8 per group) and treated with a single IV dose of test articles as shown in Table 14.1. Dose levels of ADCs at different DARs were molar matched to toxin. Tumor volume and body weight were measured twice weekly with a study duration of 32 days.

B1: v17427-MCvcPABC-MMAE (conjugate, chains of the INN, looked up)
VH: QVQLVQSGAEVKKPGASVKVSCKASGYIFTAYTMHWVRQAPGQGLEWMGWIKPNNGLANYAQKFQGRVTMTRDTSISTAYMELSRLRSDDTAVYYCARSEITTEFDYWGQGTLVTVSS
VL: DIVMTQSPDSLAVSLGERATINCKSSESVDSYANSFLHWYQQKPGQPPKLLIYRASTRESGVPDRFSGSGSGTDFTLTISSLQAEDVAVYYCQQSKEDPLTFGGGTKVEIK
modifications: IgG, HetFc MC-vc-PABC-MMAE
In the case of B1, the “tumor growth inhibition compared to vehicle” value was “did not significantly inhibit tumor growth”.
